Assay results reported in the supplement of paper PMC7877785.
± gives the uncertainty stated by the source.

Test: self-splicing fitness, log relative to wild type (ln ratio); higher = more splicing; Tetrahymena group I intron in knt gene, E. coli kanamycin selection, DiMSum; sequences stand for … in CUCUCU…GGAGGGAAAAGUUAUCAGGCAUGCACCUGGUAGCUAGUCUUUAAACCAAUAGAUUGCAUCGGUUUAAAAGGCAAGACCGUCAAAUUGCGGGAAAGGGGUCAACAGCCGUUCAGUACCAAGUCUCAGGGGAAACUUUGAGAUGGCCUUGCAAAGGGUAUGGUAAUAAGCUGACGGACAUGGUCCUAACCACGCAGCCAAGUCCUAAGUCAACAGAUCUUCUGUUGAUAUGGAUGCAGUUCACAGACUAAAUGUCGGUCGGGGAAGAUGUAUUCUUCUCAUAAGAUAUAGUCGGACCUCUCCUUAAUGGGAGCUAGCGGAUGAAGUGAUGCAACACUGGAGCCGCUGGGAACUAAUUUGUAUGCGAAAGUAUAUUGAUUAGUUUUGGAGUACUCGUGGUCG
Method in brief: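 The eight P1ex-region nucleotides of an intron in the knt kanamycin-resistance gene on pET-22b(+) were all randomised and the library put into E. coli BL21(DE3). Six replicate transformations were grown overnight at 37°C or 30°C on LB agar with or without 25 μg/mL kanamycin, together with 100 μg/mL carbenicillin, 50 μM IPTG and 0.2% rhamnose. Colonies were pooled and amplicon-sequenced on an Illumina HiSeq 2500. Fitness from DiMSum is the error-weighted combination of wild-type-normalised replicate fold changes, kanamycin over none.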

Row | Sequence | self-splicing fitness (ln) (30 °C) | self-splicing fitness (ln) (37 °C)
1 | CCAAAGCAAUAUUACGCACA | -3.55 ± 0.34 | -1.66 ± 0.32
2 | UCCAAGCAAUAUUACGUACU | -3.94 ± 0.39 | -2.54 ± 0.24
3 | GGCAAGCAAUAUUACGCUCG | -1.66 ± 0.12 | -1.4 ± 0.19
4 | CCACAGCAAUAUUACGGGCA | -3.53 ± 0.15 | -2.92 ± 0.15
5 | AUGCAGCAAUAUUACGAAGA | -1.8 ± 0.18 | -2.36 ± 0.27
6 | CAUCAGCAAUAUUACGCCAC | -2.77 ± 0.46 | -2.22 ± 0.43
7 | ACUUAGCAAUAUUACGCAGU | -3.83 ± 0.35 | -2.17 ± 0.21
8 | AGAUAGCAAUAUUACGGUCU | -2 ± 0.17 | -2.8 ± 0.22
9 | GGACAGCAAUAUUACGAGGC | -2.17 ± 0.14 | -1.32 ± 0.2
10 | CAGGAGCAAUAUUACGUAAU | -3.99 ± 0.47 | -2.78 ± 0.44
11 | GAGCAGCAAUAUUACGAGAC | -2.97 ± 0.3 | -0.985 ± 0.2
12 | AUAAAGCAAUAUUACGCUAG | -0.761 ± 0.1 | -0.165 ± 0.12
13 | CCAUAGCAAUAUUACGUCUA | -4.41 ± 0.34 | -2.47 ± 0.18
14 | UAUUAGCAAUAUUACGGUAG | -2.42 ± 0.21 | -0.417 ± 0.17
15 | ACUUAGCAAUAUUACGUAUA | -3.22 ± 0.14 | -2.41 ± 0.16
16 | UCUCAGCAAUAUUACGCAUU | -0.39 ± 0.11 | -1.55 ± 0.15
17 | UUAAAGCAAUAUUACGAGAA | -1.48 ± 0.096 | -0.717 ± 0.12
18 | UCCGAGCAAUAUUACGAAUG | -2.81 ± 0.17 | -2.94 ± 0.21
19 | GCAGAGCAAUAUUACGAUAU | -3.38 ± 0.29 | -1.72 ± 0.2
20 | AAAAAGCAAUAUUACGAAUU | -1.3 ± 0.072 | -1.13 ± 0.089
21 | UCCAAGCAAUAUUACGUAUA | -2.19 ± 0.094 | -1.29 ± 0.096
22 | CCCUAGCAAUAUUACGAGCA | -2.64 ± 0.21 | -3.08 ± 0.18
23 | UAUCAGCAAUAUUACGUCCA | -0.388 ± 0.12 | -0.0388 ± 0.13
24 | GGUCAGCAAUAUUACGAGAG | -3.37 ± 0.42 | -1.16 ± 0.25
25 | CCUUAGCAAUAUUACGUCGG | -3.99 ± 0.26 | -1.37 ± 0.15
26 | GCCCAGCAAUAUUACGCGUA | -0.753 ± 0.061 | -0.155 ± 0.064

Row | Sequence | self-splicing fitness (ln) (30 °C) | self-splicing fitness (ln) (37 °C)
27 | AGGCAGCAAUAUUACGUGGU | -3.88 ± 0.14 | -1.54 ± 0.1
28 | CAUGAGCAAUAUUACGCAAA | -3.92 ± 0.38 | -1.97 ± 0.24
29 | UUGAAGCAAUAUUACGCGAU | -1.96 ± 0.34 | 
30 | GAAAAGCAAUAUUACGGCGA | -0.334 ± 0.07 | -0.204 ± 0.074
31 | AGUAAGCAAUAUUACGGAGG | -2.9 ± 0.28 | -2.29 ± 0.26
32 | GAUGAGCAAUAUUACGUACA | -2.09 ± 0.16 | -0.48 ± 0.13
33 | GCUUAGCAAUAUUACGACGU | -0.576 ± 0.13 | 0.408 ± 0.16
34 | ACCUAGCAAUAUUACGACAA | -0.996 ± 0.14 | -0.881 ± 0.16
35 | CCUAAGCAAUAUUACGUUUG | -4.59 ± 0.18 | -3.16 ± 0.16
36 | UGCGAGCAAUAUUACGGCCG | -1 ± 0.38 | 
37 | UGGCAGCAAUAUUACGAAGU | -3.69 ± 0.37 | -2.62 ± 0.23
38 | GUCGAGCAAUAUUACGAAGU | -1.31 ± 0.33 | -1.65 ± 0.4
39 | CACCAGCAAUAUUACGUAAU | -2.63 ± 0.078 | -1.89 ± 0.097
40 | GUAGAGCAAUAUUACGAGCA | -0.443 ± 0.17 | -0.601 ± 0.22
41 | UUCGAGCAAUAUUACGAUUG |  | -2.52 ± 0.34
42 | CCUUAGCAAUAUUACGAUCU | -4.14 ± 0.39 | -2.88 ± 0.2
43 | GGGCAGCAAUAUUACGUUUC | -2.2 ± 0.094 | -0.672 ± 0.098
44 | UUCUAGCAAUAUUACGCAUA | -0.852 ± 0.12 | -0.774 ± 0.14
45 | AAUCAGCAAUAUUACGACCU | 0.207 ± 0.09 | 0.538 ± 0.096
46 | ACAUAGCAAUAUUACGUAUC | -3.37 ± 0.19 | -1.62 ± 0.2
47 | CAUUAGCAAUAUUACGAAUA | -2.12 ± 0.14 | -0.64 ± 0.13
48 | AGGCAGCAAUAUUACGUGAU | -2.2 ± 0.14 | -0.983 ± 0.13
49 | CUCAAGCAAUAUUACGCAAG |  | -0.876 ± 0.27
50 | CAUAAGCAAUAUUACGUGAA | -3.45 ± 0.2 | -2.14 ± 0.18
51 | GUCCAGCAAUAUUACGGUGU | -0.42 ± 0.066 | 0.833 ± 0.081
52 | ACCGAGCAAUAUUACGAGAG | -3.89 ± 0.28 | -2.63 ± 0.18

Row | Sequence | self-splicing fitness (ln) (30 °C) | self-splicing fitness (ln) (37 °C)
53 | GUGCAGCAAUAUUACGUGUA | -2.77 ± 0.16 | -1.31 ± 0.11
54 | CAUCAGCAAUAUUACGAUCA | -0.959 ± 0.11 | -0.294 ± 0.13
55 | UCUAAGCAAUAUUACGUAGG | -1.65 ± 0.093 | -1.24 ± 0.15
56 | GGCGAGCAAUAUUACGUUUU | -1.35 ± 0.094 | -1.35 ± 0.14
57 | UCAUAGCAAUAUUACGGCGA | -0.178 ± 0.07 | -0.102 ± 0.083
58 | AGGAAGCAAUAUUACGUGGU | -3.36 ± 0.15 | -2.61 ± 0.25
59 | AGAAAGCAAUAUUACGUCAU | -1.55 ± 0.079 | -0.954 ± 0.096
60 | CGGGAGCAAUAUUACGACGA | -1.82 ± 0.36 | 
61 | GGCAAGCAAUAUUACGUAAA | -0.188 ± 0.089 | -0.267 ± 0.1
62 | CGUGAGCAAUAUUACGCUCA | -2.84 ± 0.31 | 
63 | ACACAGCAAUAUUACGACUC | -0.737 ± 0.063 | -0.631 ± 0.072
64 | UUUCAGCAAUAUUACGAAAA | -1.02 ± 0.15 | -0.793 ± 0.15
65 | CAAGAGCAAUAUUACGCUUC | -3.61 ± 0.37 | -2.23 ± 0.43
66 | GACCAGCAAUAUUACGAAUU | -0.37 ± 0.073 | -0.374 ± 0.1
67 | UAUAAGCAAUAUUACGGUAU | -3.16 ± 0.16 | -2.25 ± 0.17
68 | UUCGAGCAAUAUUACGUCGC | -2.09 ± 0.21 | 
69 | CAUUAGCAAUAUUACGAUAA | -2.24 ± 0.2 | -1.75 ± 0.23
70 | GCCCAGCAAUAUUACGGUGU | -2.51 ± 0.067 | -1.27 ± 0.076
71 | GAGGAGCAAUAUUACGUUAC | -3.66 ± 0.25 | -3.09 ± 0.4
72 | ACGCAGCAAUAUUACGCGCC | -2.5 ± 0.15 | -3.01 ± 0.27
73 | UCAUAGCAAUAUUACGUAAU | -3.87 ± 0.48 | -2.61 ± 0.28
74 | AGUUAGCAAUAUUACGCCUG | -1.74 ± 0.21 | -1.46 ± 0.25
75 | GAGUAGCAAUAUUACGGGGG |  | -3.08 ± 0.35
76 | CGCUAGCAAUAUUACGCCUG | 0.202 ± 0.13 | 0.152 ± 0.16
77 | UAAAAGCAAUAUUACGUUAC | -3.71 ± 0.22 | -2.78 ± 0.21
